Test results from patent US20020086983.

What was measured:
[1] = biological target: FLAME-1 (in vitro translated, 35S-labeled)
[2] = biological target: FLAME-1-D341A (in vitro translated, 35S-labeled)

B1: caspase-8 (Mch5), purified recombinant (protein)
chain: SESQTLDKVYQMKSKPRGYCLIINNHNFAKAREKVPKLHSIRDRNGTHLDAGALTTTFEELHFEIKPHDDCTVEQIYEILKIYQLMDHSNMDCFICCILSHGDKGIIYGTDGQEAPIYELTSQFTGLKCPSLAGKPKVFFIQACQGDNYQKGIPVETDSEEQPYLEMDLSSPQTRYIPDEADFLLGMATVNNCVSYRNPAEGTWYIQSLCQSLRERCPRGDDILTILTEVNYEVSNKDDKKNMGKQMPQPTFTLRKKLVFPSD
[1]
  cleavage of 35S-labeled FLAME-1 into p39 and p12 (SDS-PAGE, autoradiography): in vitro translated FLAME-1 can be cleaved by several caspases including CPP32, Mch2, Mch3, Mch4, MchS and ICH-1 to generate two fragments (p39 and pl2)
[2]
  cleavage of 35S-labeled FLAME-1-D341A (SDS-PAGE, autoradiography): a D to A mutation in this site prevents these caspases from cleaving FLAME-1

B2: caspase-10 (Mch4), purified recombinant (protein)
chain: VKTFLEALPRAAVYRMNRNHRGLCVIVNNHSFTSLKDRQGTHKDAEILSHVFQWLGFTVHIHNNVTKVEMEMVLQKQKCNPAHADGDCFVFCILTHGRFGAVYSSDEALIPIREIMSHFTALQCPRLAEKPKLFFIQACQGEEIQPSVSIEADALNPEQAPTSLQDSIPAEADFLLGLATVPGYVSFRHVEEGSWYIQSLCNHLKKLVPRHEDILSILTAVNDDVSRRVDKQGTKKQMPQPAFTLRKKLVFPVPLDALSL
[1]
  cleavage of 35S-labeled FLAME-1 into p39 and p12 (SDS-PAGE, autoradiography): in vitro translated FLAME-1 can be cleaved by several caspases including CPP32, Mch2, Mch3, Mch4, MchS and ICH-1 to generate two fragments (p39 and pl2)
[2]
  cleavage of 35S-labeled FLAME-1-D341A (SDS-PAGE, autoradiography): a D to A mutation in this site prevents these caspases from cleaving FLAME-1

B3: caspase-6 (Mch2), purified recombinant (protein)
chain: AFYKREMFDPAEKYKMDHRRRGIALIFNHERFFWHLTLPERRGTCADRDNLTRRFSDLGFEVKCFNDLKAEELLLKIHEVSTVSHADADCFVCVFLSHGEGNHIYAYDAKIEIQTLTGLFKGDKCHSLVGKPKIFIIQACRGNQHDVPVIPLDVVDNQTEKLDTNITEVDAASVYTLPAGADFLMCYSVAEGYYSHRETVNGSWYIQDLCEMLGKYGSSLEFTELLTLVNRKVSQRRVDFCKDPSAIGKKQVPCFASMLTKKLHFFPKSN
[1]
  cleavage of 35S-labeled FLAME-1 into p39 and p12 (SDS-PAGE, autoradiography): in vitro translated FLAME-1 can be cleaved by several caspases including CPP32, Mch2, Mch3, Mch4, MchS and ICH-1 to generate two fragments (p39 and pl2)
[2]
  cleavage of 35S-labeled FLAME-1-D341A (SDS-PAGE, autoradiography): a D to A mutation in this site prevents these caspases from cleaving FLAME-1

B4: caspase-7 (Mch3), purified recombinant (protein)
chain: AKPDRSSFVPSLFSKKKKNVTMRSIKTTRDRVPTYQYNMNFEKLGKCIIINNKNFDKVTGMGVRNGTDKDAEALFKCFRSLGFDVIVYNDCSCAKMQDLLKKASEEDHTNAACFACILLSHGEENVIYGKDGVTPIKDLTAHFRGDRCKTLLEKPKLFFIQACRGTELDDGIQADSGPINDTDANPRYKIPVEADFLFAYSTVPGYYSWRSPGRGSWFVQALCSILEEHGKDLEIMQILTRVNDRVARHFESQSDDPHFHEKKQIPCVVSMLTKELYFSQ
[1]
  cleavage of 35S-labeled FLAME-1 into p39 and p12 (SDS-PAGE, autoradiography): in vitro translated FLAME-1 can be cleaved by several caspases including CPP32, Mch2, Mch3, Mch4, MchS and ICH-1 to generate two fragments (p39 and pl2)

B5: caspase-2 (ICH-1), purified recombinant (protein)
chain: GPVCLQVKPCTPEFYQTHFQLAYRLQSRPRGLALVLSNVHFTGEKELEFRSGGDVDHSTLVTLFKLLGYDVHVLCDQTAQEMQEKLQNFAQLPAHRVTDSCIVALLSHGVEGAIYGVDGKLLQLQEVFQLFDNANCPSLQNKPKMFFIQACRGDETDRGVDQQDGKNHAGSPGCEESDAGKEKLPKMRLPTRSDMICGYACLKGTAAMRNTKRGSWYIEALAQVFSERACDMHVADMLVKVNALIKDREGYAPGTEFHRCKEMSEYCSTLCRHLYLFPGHPPT
[1]
  cleavage of 35S-labeled FLAME-1 into p39 and p12 (SDS-PAGE, autoradiography): in vitro translated FLAME-1 can be cleaved by several caspases including CPP32, Mch2, Mch3, Mch4, MchS and ICH-1 to generate two fragments (p39 and pl2)
[2]
  cleavage of 35S-labeled FLAME-1-D341A (SDS-PAGE, autoradiography): a D to A mutation in this site prevents these caspases from cleaving FLAME-1

B6: caspase-3 (CPP32), purified recombinant (protein)
chain: SGISLDNSYKMDYPEMGLCIIINNKNFHKSTGMTSRSGTDVDAANLRETFRNLKYEVRNKNDLTREEIVELMRDVSKEDHSKRSSFVCVLLSHGEEGIIFGTNGPVDLKKITNFFRGDRCRSLTGKPKLFIIQACRGTELDCGIETDSGVDDDMACHKIPVEADFLYAYSTAPGYYSWRNSKDGSWFIQSLCAMLKQYADKLEFMHILTRVNRKVATEFESFSFDATFHAKKQIPCIVSMLTKELYFYH
[1]
  cleavage of 35S-labeled FLAME-1 into p39 and p12 (SDS-PAGE, autoradiography): in vitro translated FLAME-1 can be cleaved by several caspases including CPP32, Mch2, Mch3, Mch4, MchS and ICH-1 to generate two fragments (p39 and pl2)
